The values below come from patent US10464987B2.

The target in experiment [1] is SIY peptide on H-2Kb (mouse). Description: value stated for 2C in the legend of FIG. 16, no measurement described; given for scTv and full-length constructs alike.
In experiment [2] the target is SIY peptide on H-2Kb (mouse). The experiment can be described thus: value stated for m33 in the legend of FIG. 16, no measurement described; given for scTv and full-length constructs alike.
The target in experiment [3] is SIY peptide on H-2Kb (mouse). The experiment can be described thus: value cited from Chervin et al. 2009 (ref 18); not measured in this filing.

One may read the Kd as the constant that tells how readily two partners part at equilibrium. High values mean a looser complex, low ones a tighter complex. In the case of 2C full-length TCR, the Kd in experiment [1] stood at 30 µM.
Consider m33 full-length TCR, for which the Kd in experiment [2] worked out at 0.03 µM; in experiment [3], 0.016 µM.
